The record followed here is patent US20090170763A1 (KENJI KANGAWA, published 2009).

Square brackets hold non-standard residues; d marks the D form. Ends that are not written are not given here. * marks the point of attachment. Trt = c1ccc(C(c2ccccc2)(c2ccccc2)*)cc1; Octanoyl = CCCCCCCC(=O)*; Aib = CC(C)(N)C(=O)O; Octyl = CCCCCCCC* Some results are limits rather than exact numbers.

First the molecules themselves.
B1: [Aib^1,His^2,^DSer^3(Octyl),^DPhe^4,Lys^5]-Ghrelin (1-5)-amide (peptide)
peptide: [Aib]H[dS](Octyl)[dF]K-NH2
modifications: N-terminus assumed
SMILES: CCCCCCCCOC[C@@H](NC(=O)[C@H](Cc1c[nH]cn1)NC(=O)C(C)(C)N)C(=O)N[C@H](Cc1ccccc1)C(=O)N[C@@H](CCCCN)C(N)=O
B2: [Cys^3(Octyl)]-Ghrelin (1-7)-amide (peptide)
peptide: GSC(Octyl)FLSP-NH2
modifications: N-terminus assumed
SMILES: CCCCCCCCSC[C@H](NC(=O)[C@H](CO)NC(=O)CN)C(=O)N[C@@H](Cc1ccccc1)C(=O)N[C@@H](CC(C)C)C(=O)N[C@@H](CO)C(=O)N1CCC[C@H]1C(N)=O
B3: [His^2]-Ghrelin (1-7)-amide (peptide)
peptide: GHS(Octanoyl)FLSP-NH2
modifications: N-terminus assumed
SMILES: CCCCCCCC(=O)OC[C@H](NC(=O)[C@H](Cc1c[nH]cn1)NC(=O)CN)C(=O)N[C@@H](Cc1ccccc1)C(=O)N[C@@H](CC(C)C)C(=O)N[C@@H](CO)C(=O)N1CCC[C@H]1C(N)=O
B4: [Dap^3(Octanoyl)]-hGhrelin (peptide)
peptide: GSXFLSPEHQRVQQRKESKKPPAKLQPR
modifications: position 3 (X) is L-2,3-diaminopropionic acid (Dap) with N-octanoyl side chain (CH2NHCO-C7H15)
B5: [Lys^7]-Ghrelin (1-7)-amide (peptide)
peptide: GSS(Octanoyl)FLSK-NH2
modifications: N-terminus assumed
SMILES: CCCCCCCC(=O)OC[C@H](NC(=O)[C@H](CO)NC(=O)CN)C(=O)N[C@@H](Cc1ccccc1)C(=O)N[C@@H](CC(C)C)C(=O)N[C@@H](CO)C(=O)N[C@@H](CCCCN)C(N)=O
B6: [Lys^6]-Ghrelin (1-6)-amide (peptide)
peptide: GSS(Octanoyl)FLK-NH2
modifications: N-terminus assumed
SMILES: CCCCCCCC(=O)OC[C@H](NC(=O)[C@H](CO)NC(=O)CN)C(=O)N[C@@H](Cc1ccccc1)C(=O)N[C@@H](CC(C)C)C(=O)N[C@@H](CCCCN)C(N)=O
B7: [^DPhe^4,Lys^5]-Ghrelin (1-5)-amide (peptide)
peptide: GSS(Octanoyl)[dF]K-NH2
modifications: N-terminus assumed
SMILES: CCCCCCCC(=O)OC[C@H](NC(=O)[C@H](CO)NC(=O)CN)C(=O)N[C@H](Cc1ccccc1)C(=O)N[C@@H](CCCCN)C(N)=O
B8: [Gly^2]-Ghrelin (1-7)-amide (peptide)
peptide: GGS(Octanoyl)FLSP-NH2
modifications: N-terminus assumed
SMILES: CCCCCCCC(=O)OC[C@H](NC(=O)CNC(=O)CN)C(=O)N[C@@H](Cc1ccccc1)C(=O)N[C@@H](CC(C)C)C(=O)N[C@@H](CO)C(=O)N1CCC[C@H]1C(N)=O
B9: [Lys^2]-Ghrelin (1-7)-amide (peptide)
peptide: GKS(Octanoyl)FLSP-NH2
modifications: N-terminus assumed
SMILES: CCCCCCCC(=O)OC[C@H](NC(=O)[C@H](CCCCN)NC(=O)CN)C(=O)N[C@@H](Cc1ccccc1)C(=O)N[C@@H](CC(C)C)C(=O)N[C@@H](CO)C(=O)N1CCC[C@H]1C(N)=O
B10: [Cys^3(Octyl),^DPhe^4]-Ghrelin (1-7)-amide (peptide)
peptide: GSC(Octyl)[dF]LSP-NH2
modifications: N-terminus assumed
SMILES: CCCCCCCCSC[C@H](NC(=O)[C@H](CO)NC(=O)CN)C(=O)N[C@H](Cc1ccccc1)C(=O)N[C@@H](CC(C)C)C(=O)N[C@@H](CO)C(=O)N1CCC[C@H]1C(N)=O
B11: [Aib^1,His^2,Ser^3(Octyl),Lys^5]-Ghrelin (1-5)-amide (peptide)
peptide: [Aib]HS(Octyl)FK-NH2
modifications: N-terminus assumed
SMILES: CCCCCCCCOC[C@H](NC(=O)[C@H](Cc1c[nH]cn1)NC(=O)C(C)(C)N)C(=O)N[C@@H](Cc1ccccc1)C(=O)N[C@@H](CCCCN)C(N)=O
B12: [N-Glycyl]-Ghrelin (3-7)-amide (peptide)
peptide: GS(Octanoyl)FLSP-NH2
modifications: N-terminus assumed
SMILES: CCCCCCCC(=O)OC[C@H](NC(=O)CN)C(=O)N[C@@H](Cc1ccccc1)C(=O)N[C@@H](CC(C)C)C(=O)N[C@@H](CO)C(=O)N1CCC[C@H]1C(N)=O
B13: [Arg^8]-Ghrelin (1-8)-amide (peptide)
peptide: GSS(Octanoyl)FLSPR-NH2
modifications: N-terminus assumed
SMILES: CCCCCCCC(=O)OC[C@H](NC(=O)[C@H](CO)NC(=O)CN)C(=O)N[C@@H](Cc1ccccc1)C(=O)N[C@@H](CC(C)C)C(=O)N[C@@H](CO)C(=O)N1CCC[C@H]1C(=O)N[C@@H](CCCNC(=N)N)C(N)=O
B14: [Lys^8]-Ghrelin (1-8)-amide (peptide)
peptide: GSS(Octanoyl)FLSPK-NH2
modifications: N-terminus assumed
SMILES: CCCCCCCC(=O)OC[C@H](NC(=O)[C@H](CO)NC(=O)CN)C(=O)N[C@@H](Cc1ccccc1)C(=O)N[C@@H](CC(C)C)C(=O)N[C@@H](CO)C(=O)N1CCC[C@H]1C(=O)N[C@@H](CCCCN)C(N)=O
B15: [Lys^5]-Ghrelin (1-5)-amide (peptide)
peptide: GSS(Octanoyl)FK-NH2
modifications: N-terminus assumed
SMILES: CCCCCCCC(=O)OC[C@H](NC(=O)[C@H](CO)NC(=O)CN)C(=O)N[C@@H](Cc1ccccc1)C(=O)N[C@@H](CCCCN)C(N)=O
B16: Ghrelin (1-7)-amide (peptide)
peptide: GSS(Octanoyl)FLSP-NH2
modifications: N-terminus assumed
SMILES: CCCCCCCC(=O)OC[C@H](NC(=O)[C@H](CO)NC(=O)CN)C(=O)N[C@@H](Cc1ccccc1)C(=O)N[C@@H](CC(C)C)C(=O)N[C@@H](CO)C(=O)N1CCC[C@H]1C(N)=O
B17: Ghrelin (1-5)-amide (peptide)
peptide: GSS(Octanoyl)FL-NH2
modifications: N-terminus assumed
SMILES: CCCCCCCC(=O)OC[C@H](NC(=O)[C@H](CO)NC(=O)CN)C(=O)N[C@@H](Cc1ccccc1)C(=O)N[C@@H](CC(C)C)C(N)=O
B18: Ghrelin (1-6)-amide (peptide)
peptide: GSS(Octanoyl)FLS-NH2
modifications: N-terminus assumed
SMILES: CCCCCCCC(=O)OC[C@H](NC(=O)[C@H](CO)NC(=O)CN)C(=O)N[C@@H](Cc1ccccc1)C(=O)N[C@@H](CC(C)C)C(=O)N[C@@H](CO)C(N)=O
B19: Ghrelin (1-8)-amide (peptide)
peptide: GSS(Octanoyl)FLSPE-NH2
modifications: N-terminus assumed
SMILES: CCCCCCCC(=O)OC[C@H](NC(=O)[C@H](CO)NC(=O)CN)C(=O)N[C@@H](Cc1ccccc1)C(=O)N[C@@H](CC(C)C)C(=O)N[C@@H](CO)C(=O)N1CCC[C@H]1C(=O)N[C@@H](CCC(=O)O)C(N)=O
B20: Ghrelin (1-4)-amide (peptide)
peptide: GSS(Octanoyl)F-NH2
modifications: N-terminus assumed
SMILES: CCCCCCCC(=O)OC[C@H](NC(=O)[C@H](CO)NC(=O)CN)C(=O)N[C@@H](Cc1ccccc1)C(N)=O

In one assay the target is rat GHS-R (GHS receptor) expressed on CHO-GHSR62 cells (rat) (UniProt O08725). As to the kind of experiment: cell-based or functional assay.
Sequence of rat GHS-R (GHS receptor) expressed on CHO-GHSR62 cells (rat) (O08725 whole entry): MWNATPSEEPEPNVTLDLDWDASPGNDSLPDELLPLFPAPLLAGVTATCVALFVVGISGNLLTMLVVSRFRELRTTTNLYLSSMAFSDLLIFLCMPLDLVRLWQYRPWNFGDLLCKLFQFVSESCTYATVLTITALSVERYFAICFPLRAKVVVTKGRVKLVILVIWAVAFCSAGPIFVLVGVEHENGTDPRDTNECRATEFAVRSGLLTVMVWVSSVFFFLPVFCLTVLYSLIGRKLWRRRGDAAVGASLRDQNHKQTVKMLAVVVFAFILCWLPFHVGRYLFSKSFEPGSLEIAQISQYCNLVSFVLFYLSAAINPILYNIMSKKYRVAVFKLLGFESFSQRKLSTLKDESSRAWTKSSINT
For GSC(Trt)FLSPEHQRVQQRKESKKPPAKLQPR [[Cys^3(Trityl)]-hGhrelin], the Activity EC50 came out at 20 nM.

The molecule B1 yielded an Activity EC50 of 38 nM.

B2 registered a Ca-releasing activity EC50 of 7.4 nM.

Molecule B3 gave a Ca-releasing activity EC50 of 35 nM.

In turn, GSXFLSPEHQRVQQRKESKKPPAKLQPR (position 3 (X) is 2-L-naphthylalanine (Nal)) [[2-^LNal^3]-hGhrelin] gave an Activity EC50 of 8.2 nM and an EC50 value of 8.2 nM.

For B4, the Activity EC50 was 2.6 nM.

Regarding B5, the Activity EC50 stood at 11 nM.

Take B6: the Ca-releasing activity EC50 was determined as 12 nM.

For the molecule B7, the Ca-releasing activity EC50 worked out at 1700 nM.

Consider GST(Octanoyl)FLSPEHQRVQQRKESKKPPAKLQPR [[Thr^3(Octanoyl)]-hGhrelin], for which the Activity EC50 was determined as 10 nM.

Consider B8, for which the Ca-releasing activity EC50 came to 78 nM.

B9 yielded a Ca-releasing activity EC50 of 24 nM.

Take B10: the Ca-releasing activity EC50 was found to be 3000 nM.

GSXFLSPEHQRVQQRKESKKPPAKLQPR (position 3 (X) is 2-aminododecanoic acid (Adod; side chain n-C10H21)) [[Adod^3]-hGhrelin] returned an Activity EC50 of 0.91 nM.

GSC(Octyl)FLSPEHQKAQQRKESKKPPAKLQPR [[Cys^3(Octyl)]-rGhrelin]: the Ca-releasing activity EC50 came to 5.4 nM and the EC50 value came to 5.4 nM.

Take GSC(S‑heptyl)FLSPEHQRVQQRKESKKPPAKLQPR [[Cys^3(S-Heptyl)]-hGhrelin]: the Activity EC50 stood at 1.4 nM.

In turn, B11 showed an Activity EC50 of 34 nM.

In turn, B12 registered a Ca-releasing activity EC50 of 380 nM.

Take GSXFLSPEHQRVQQRKESKKPPAKLQPR (position 3 (X) is 2-D-naphthylalanine (D-Nal)) [[2-^DNal^3]-hGhrelin]: the Activity EC50 is > 10000 nM.

Regarding GSDFLSPEHQRVQQRKESKKPPAKLQPR (Asp 3 side-chain heptyl ester (O-C7H15)) [[Asp^3(O-Heptyl)]-hGhrelin], the Activity EC50 turned out to be 5.1 nM.

The molecule GSXFLSPEHQRVQQRKESKKPPAKLQPR (position 3 (X) is norleucine (Nle)) [[Nle^3]-hGhrelin] showed an Activity EC50 of 2800 nM.

Regarding B13, the Ca-releasing activity EC50 worked out at 1.1 nM.

GSXFLSPEHQRVQQRKESKKPPAKLQPR (position 3 (X) is cyclohexylalanine (Cha)) [[Cha^3]-hGhrelin]: the Activity EC50 turned out to be 19 nM.

As to GSDFLSPEHQRVQQRKESKKPPAKLQPR (Asp 3 side-chain heptylamide (NH-C7H15)) [[Asp^3(NH-Heptyl)]-hGhrelin], the Activity EC50 amounted to 11 nM.

As for B14, the Ca-releasing activity EC50 was 1.1 nM.

YGSS(Octanoyl)FLSPEHQKAQQRKESKKPPAKLQPR [[N-Tyr]-rGhrelin] had a Ca-releasing activity EC50 of 120 nM.

The molecule B15 registered a Ca-releasing activity EC50 of 10 nM.

A further assay deals with rat GHS-R (GHS receptor) expressed on CHO-GHSR62 cells (rat, UniProt O08725 1-364). As to the kind of experiment: cell-based or functional assay.
Sequence of rat GHS-R (GHS receptor) expressed on CHO-GHSR62 cells (O08725 whole entry): as the sequence (O08725 whole entry) above
As to B16, the “Ca-releasing activity EC50” value was 2.6 nM.

Consider GSS(Octanoyl)FL [Ghrelin (1-5)], for which the “Ca-releasing activity EC50” value was 68 nM.

B17: the “Ca-releasing activity EC50” value came to 6.2 nM.

For Gly-Ser-Ser(Octanoyl)-NH2 (N-terminus assumed; SMILES CCCCCCCC(=O)OC[C@H](NC(=O)[C@H](CO)NC(=O)CN)C(N)=O) [Ghrelin (1-3)-amide], the “Ca-releasing activity EC50” value is > 10000 nM.

Turning to B18, the “Ca-releasing activity EC50” value came out at 4.8 nM.

B19: the “Ca-releasing activity EC50” value is 13 nM.

Take B20: the “Ca-releasing activity EC50” value was found to be 160 nM.
